Data on six sequences can be found in the DeepSol protein solubility set.

This series is described as follows: soluble on expression in E. coli; label from the status in PepcDB or PDB records.
For “MGSDKIHHHHHHMGNRTRTIAGKDITRSVADALQYISYYHPPDYIRSLSQAYAREQSPAAKNAIGQILLNSRMAAFGRRPICQDTGLVVVFAKVGMETRIKSTISFADLVNEGVRQAYLDPDNPLRASIVADPLAGRVNTRDNTPAVVHVDLVQGNQIEITIAAKGGGSENKARFTTLNPSASVSDWVIDTVSTLGSGWCPPGLISVGIGGSAEKAMLLAKEAMNKPIDMSELIARGPSSAEEALRIELYERINALGIGAQGLGGLTTVVDVKVATYPTHAASKPVALIPQCAANRHLKFTLDGSGPIRVQPPDLCEWPDIGTDELSPAGVRRVNLDALTKEETASWRCGETLLLSGKMLTGRDAAHKRMVELIDAGKPLPFDLQGRVIYYVGPVRAVRDEVVGPAGPTTSSRLDDFTDKVLAETGLFAMVGKAERGRAAIESIVRHKTPYLIAVGGAAYLISKSIKSARLIAFEDLGMEAVYEFEVQDMPVIMAVDVDGNSIHNSGPLEWRKRMAADSIARNIGV”, the “soluble on expression in E. coli” value is on record as “not soluble”.

Regarding “MELNWALFYGLCPSIKMAHVFDKDEIMGLFESFRKARAKTKAEIKAAKVKARQEVKDATKLEIKRNKLLAQQEKALLKEERKGLKAKRKHEEKLAKTTLEQLKAGKFNKDNVLRYAGAARTLAPIVLPLIYRGITLAKEQANTKRALRLGIDPSDLARFAGHGAELKARIEGIRGSVKVSSLPKGFVADVEQRLDDLTFAVDNAEYMTPELRQRSHRSIANDLDQLARQIQDKIGE”, the “soluble on expression in E. coli” value is “not soluble”. Consider “MGHHHHHHSHYHVYWLEMVLFYRAHFGTDETILDGKEYDIYVSYARNAEEEEFVLLTLRGVLENEFGYKLCIFDRDSLPGGIVTDETLSFIQKSRRLLVVLSPNYVLQGTQALLELKAGLENMASRGNINVILVQYKAVKETKVKELKRAKTVLTVIKWKGEKSKYPQGRFWKQLQVAMPVKKSPRRSSS”, for which the “soluble on expression in E. coli” value is reported as “soluble”. The value for “MGVLDHVSEYFDCSHGSSKRHKSLQTVDVRVLIDCEGCERKVRRALEGMRGIRDVTIEPNAQKVTVVGYVEPNKVVARIIHRTGKRAELYPFVPYDVVAHPYASGVYDNRAPTGYVRNTEYDPHVSRLARASSTEVRYTTAFSDENASACVVM” was “soluble”; that for “MSRPQFTSLRLSLLALAVSATLPTFAFATETMTVTATGNARSSFEAPMMVSVIDTSAPENQTATSATDLLRHVPGITLDGTGRTNGQDVNMRGYDHRGVLVLVDGVRQGTDTGHLNGTFLDPALIKRVEIVRGPSALLYGSGALGGVISYDTVDAKDLLQEGQSSGFRVFGTGGTGDHSLGLGASAFGRTENLDGIVAWSSRDRGDLRQSNGETAPNDESINNMLAKGTWQIDSAQSLSGLVRYYNNDAREPKNPQTVGASESSNPMVDRSTIQRDAQLSYKLAPQGNDWLNADAKIYWSEVRINAQNTGSSGEYREQITKGARLENRSTLFADSFASHLLTYGGEYYRQEQHPGGATTGFPQAKIDFSSGWLQDEITLRDLPITLLGGTRYDSYRGSSDGYKDVDADKWSSRAGMTINPTNWLMLFGSYAQAFRAPTMGEMYNDSKHFSIGRFYTNYWVPNPNLRPETNETQEYGFGLRFDDLMLSNDALEFKASYFDTKAKDYISTTVDFAAATTMSYNVPNAKIWGWDVMTKYTTDLFSLDVAYNRTRGKDTDTGEYISSINPDTVTSTLNIPIAHSGFSVGWVGTFADRSTHISSSYSKQPGYGVNDFYVSYQGQQALKGMTTTLVLGNAFDKEYWSPQGIPQDGRNGKIFVSYQW” was “not soluble”; that for “MGSDKIHHHHHHMTQLFLHSDTPNEKELISIYEKAVSEAVELYIFSAYLTHWDVKNKLNSKLQEFKFIFGQDFGLSKKEAIRKVLKWLPSHLKFTLMVAQGIQGFHPKAVFWKNDKNEYYALIGSSNLTHAAFNSNYEANILTKISEQDFIKVKSWADEIAMKSIPVSEDWLEEYQEAEINYKKSTVRQSVMDKLFMEMPNYNQELIAARRKQMRNHQTVCNQLKNLIKQCAAGKIDNNDFYGEFNKLWSWKSENKGEGVGNRFQDKTWKRTGKSSDFRKLCIAIQSVFDAPLTERDNVVAKQIDWLKECGVSTRGSVFSEMLCQEYPDRYPVLNAPIKKFLEENKFKSAKGASEGSKYIDLSMKLRALLAMQSEIKDLAELDVLVQAEYRNRTDIDWE” was “not soluble”.
